Publication PMC7557104, “Population genetic and biophysical evidences reveal that purifying selection shapes the genetic landscape of Plasmodium falciparum RH ligands in Chhattisgarh and West Bengal, India” (Malaria Journal, 2020)

Assays:
[1] = biological target: T1, rPfRH5_(3D7), recombinant receptor binding fragment of P. falciparum reticulocyte binding protein-like … (Plasmodium falciparum, UniProt Q8IFM5 35-222); test: ITC; BSG injected drop by drop (1 min intervals) into the cell holding PfRH5_(3D7) or PfRH5M; BSG 10 times more concentrated than PfRH5; 25 °C; 0.1 M phosphate buffer, pH 7.0, Dulbecco PBS pH 7.4 in the reference cell (methods); PBS-BSG titration subtracted; fit to one set of binding sites; conditions: both partners purified
T1 construct: made by site-directed mutagenesis (Y203 to C) of the field-isolate clone rPfRH5M-pET-20b; Cloned BamHI/HindIII into pET-20b(+); also called C203 allele; source: E. coli BL21 (DE3), purified (Ni-NTA)
T1 sequence: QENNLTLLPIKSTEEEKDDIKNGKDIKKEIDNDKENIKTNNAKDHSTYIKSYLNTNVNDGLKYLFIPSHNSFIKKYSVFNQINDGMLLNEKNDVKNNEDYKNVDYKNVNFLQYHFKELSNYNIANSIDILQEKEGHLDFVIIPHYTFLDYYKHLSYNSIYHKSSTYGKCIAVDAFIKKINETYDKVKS

[2] = biological target: T2, rPfRH5M, recombinant receptor binding fragment of PfRH5 encoded by the most prevalent haplotype rh5h1 (Y203) (Plasmodium falciparum, UniProt Q8IFM5 35-222, C203Y); test: as above; conditions: both partners purified
T2 construct: PfRH5, Plasmodium falciparum, field-isolate haplotype rh5h1, which differs from the Pf3D7 allele by C203Y; 188 aa, Glutamine-35 to Serine-222, amplified from DNA of an infected blood sample; Cloned BamHI/HindIII into pET-20b(+); also called PfRH5_(variant); Y203 allele; source: E. coli BL21 (DE3), purified (Ni-NTA)
T2 sequence (looked up): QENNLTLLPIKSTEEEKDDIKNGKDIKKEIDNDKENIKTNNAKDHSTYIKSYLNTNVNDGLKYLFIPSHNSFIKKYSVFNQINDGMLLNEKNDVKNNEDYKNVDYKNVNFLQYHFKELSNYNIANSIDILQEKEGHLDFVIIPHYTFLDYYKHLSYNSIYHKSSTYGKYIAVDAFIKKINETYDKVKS

B1: basigin (BSG) (receptor)
chain: AAGTVFTTVEDLGSKILLTCSLNDSATEVTGHRWLKGGVVLKEDALPGQKTEFKVDSDDQWGEYSCVFLPEPMGTANIQLHGPPRVKAVKSSEHINEGETAMLVCKSESVPPVTDWAWYKITDSEDKALMNGSESRFFVSSSQGRSELHIENLNMEADPGQYRCNGTSSKGSDQAIITLRVRSHLAAL
- Ka [1]: 1.31e+06 M⁻¹
- Ka [2]: 3.63e+06 M⁻¹
